In patent US20060275317A1, “Vaccine compositions for prevention of chronic and infectious diseases” (Biokit S.A., priority 2003, published 2006):
Entries after “also recorded” stand apart in the source; their conditions may differ.

Assays:
[1] = target: T1, LISOZIMA CHIESI (chicken lysozyme) (Gallus gallus, UniProt P00698); assay: Inhibition of commercial chicken lysozyme preparation (EnzCheck); assay type: biochemical; conditions: lysozyme 4 μg/ml; molar ratio 1:5 to 1:50 GST-Tp17
T1 construct: natural hen egg-derived chicken lysozyme used in commercially available medicinal preparations; purchased CHIESI ESPAÑA SA, Barcelona, Spain
T1 sequence (P00698 19-147): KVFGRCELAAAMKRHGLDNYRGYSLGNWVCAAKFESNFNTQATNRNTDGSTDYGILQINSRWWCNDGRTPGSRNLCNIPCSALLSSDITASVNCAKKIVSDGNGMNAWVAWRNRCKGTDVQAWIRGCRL
Experimental: (§1) Chicken Lysozyme is a potent antimicrobial enzyme active against both bacteria and viruses. Commercial preparations that contain Lysozyme as an active agent include, but are not limited to, LIZIPAINA® (Boehringer Ingelheim, San Cugat del Vallés, Spain) and LISOZIMA CHIESI (CHIESI ESPAÑA SA, Barcelona, Spain). […] To test this hypothesis, one tablet of each drug, LIZIPAINA® (containing 5 mg chicken lysozyme per tablet) and LISOZIMA CHIESI (containing 250 mg chicken lysozyme per tablet), was resuspended in deionized water (The Millipore Corporation, Bedford, Mass., USA) to adjust the Lysozyme concentration to 4 μg/ml. These samples were then incubated in absence or in presence of increasing amount of either GST-Tp17 or Tp17-HIS. In this experiment the molar ratio between chicken lysozyme and its cognate inhibitor was varied from 1:5 to 1:50 for GST-Tp17 and from 1:16 to 1:160 for Tp17-HIS. After an incubation period of 5 minutes at 20° C. the samples were assayed for lysozyme enzymatic activity using the EnzCheck® Lysozyme assay kit (E-22013; Molecular Probes Inc., Eugene, Oreg., USA) as recommended by the supplier guidelines.

[2] = target: T2, LIZIPAINA (chicken lysozyme) (Gallus gallus, UniProt P00698); assay: as above; assay type: biochemical; conditions: lysozyme 4 μg/ml; molar ratio 1:5 to 1:50 GST-Tp17, 1:16 to 1:160 Tp17-HIS
T2 construct: natural hen egg-derived chicken lysozyme used in commercially available medicinal preparations; purchased Boehringer Ingelheim, San Cugat del Vallés, Spain
T2 sequence (P00698 19-147): as above
Experimental: as §1

chicken lysozyme [3] = target: T3, chicken lysozyme (Gallus gallus, UniProt P00698); assay: Lysozyme inhibition assay (EnzCheck, fluorescein-labeled Micrococcus lysodeikticus); assay type: biochemical
T3 sequence (P00698 19-147): as above
Experimental: (§2) To test this hypothesis, the antibacterial activity of both human and chicken lysozyme, in the presence or absence of GST-Tp17, was assayed using an EnzCheck® lysozyme assay kit (Molecular Probes, Eugene, Oreg.). The assay comprises the use of Fluorescein-labeled Micrococcus lysodeikticus bacterial cells as a fluorescent substrate of lysozyme. In this Gram positive bacterium, the peptidoglycan layer is directly accessible to lysozyme, and has been Fluorescein-labeled such that fluorescence is naturally quenched. Upon lysozyme hydrolysis, quenching is relieved and fluorescein is released in a quantity that is proportional to lysozyme activity. The following experimental protocol was used.
(§3) A typical 100 μl reaction consisted of 25 μl of lysozyme solution (10 units for chicken lysozyme or 50 units for human lysozyme, dissolved in deionized water), 25 μl of the test protein solution and 50 μl of a suspension of fluorescein-labeled Micrococcus lysodeikticus (50 μg/ml). The reaction was incubated for 45 minutes at 37° C. and the fluorescence was measured (λexc.=485 nm; λemi.=520 nm) using a fluorescence multi-well plate reader model FLx800 (Bio TEK instruments, Winoosky, Vt.) equipped with KC junior data acquisition software (Bio TEK Instruments, Winoosky, Vt.). Each experimental point was expressed as the mean and standard deviation corresponding to the reading of three independent wells. Wells containing 50 μl of deoinized water and […] of Fluorescein-labeled Micrococcus lysodeikticus suspension were used as a blank. Two fold serial dilutions of test protein were used to vary the concentration of the test protein from 83.5 to 1.3 μg/well.

human lysozyme [4] = assay: as above; assay type: biochemical
Experimental: as §2, §3

chicken lysozyme [5] = target: T3, chicken lysozyme; assay: Far Western blot lysozyme-protein interaction assay; assay type: binding; conditions: 1, 5, 10 μg immobilized lysozyme; washes with 0.05% Tween 20
Experimental: (§4) In order to test this hypothesis, a Far-Western blot lysozyme-protein interaction assay was performed. The assay is summarized in FIG. 5 and comprises generally the following three steps: (1) immobilization of purified lysozyme onto a membrane; (2) probing of the membrane with a ligand likely to bind directly to the lysozyme; and (3) immunodetection of the bound lysozyme-ligand. A detailed experimental procedure is presented below.
(§5) Purified chicken egg white lysozyme and human breast milk lysozyme were purchased from Sigma-Aldrich (Madrid, Spain). Two series of aliquot fractions containing 1 μg, 5 μg, and 10 μg of purified lysozyme and a protein molecular weight marker (SeeBlue Plus II™, Invitrogen SA, Barcelona, Spain) were separated electrophoretically through a 4-12% SDS-PAGE gel using the conditions recommended by the supplier (Invitrogen). The gel was then processed for Western blotting as described in Sambrook et al. (1989) according to art known methods, and the proteins were electro-transferred to an Immobilon™ P PVDF membrane (Millipore Corp., Bedford, Mass.). The presence of lysozyme immobilized onto the PVDF membrane was assessed by staining for 1 minute with Ponceau S stain (Sigma-Aldrich, Madrid, Spain), and then destained by vigorous washing for 5 minutes with desionized water. The membrane was divided in two, each portion containing a protein ladder and three quantities of chicken or human lysozyme (1 μg, 5 μg and 10 μg per lane). Each membrane was then incubated for 16 hours at 4° C. in 5 ml of TBST (10 mM Tris-HCl, pH 8.0, 150 mM NaCl, 0.05% weight/vol. Tween 20™,) supplemented with 5% (weight/vol.) of non-fat skimmed dried SVELTESSE™milk (NESTLÉ, ESPAÑA, Barcelona, Spain) (to make TBST-milk). […]

human lysozyme [6] = assay: as above; assay type: binding; conditions: 1, 5, 10 μg immobilized lysozyme; washes with 0.05% Tween 20
Experimental: as §4, §5

[7] = test system: Micrococcus lysodeikticus; conditions: pH 6.24, 25° C, Micrococcus lysodeikticus substrate; cited from earlier work
human lysozyme [8] = assay: POD-labeled human lysozyme binding to immobilized β-APP forms (spot blot); conditions: 10 μg spotted; POD-HuLYS diluted 1/1000
Experimental: To test whether the β-APP protein binds huLYS, we performed lysozyme binding assays using purified, recombinant forms of β-APP. Both sAPPα (product number: S9564) and sAPPα (302-612) (product number: S8065) were purchased from Sigma-Aldrich (Tres cantos, Madrid, Spain). 10 μg of each protein was spotted onto a Nytran membrane (Scleicher & Schüell, Dassel, Germany). Non-specific adsorption sites were blocked by incubation for one hour in TBST-milk. After three washes with TBST, the membrane was incubated for one hour with horse radish peroxidase (POD)-labeled human lysozyme diluted 1/1000 in TBST-milk. Next, the membrane was washed three times, for 5 minutes each wash, with TBST. Staining was performed by adding 5 ml of POD chromogenic substrate (TMB, product number: T0565, Sigma). […] Moreover, the β-APP/huLYS protein complex likely serves as a diagnostic marker of Alzheimer's disease.

[9] = mature protein; cited from earlier work
[10] = test system: Micrococcus lysodeikticus; assay: Antibacterial activity of lysozymes in presence or absence of Tp17 (EnzCheck Lysozyme assay); assay type: biochemical; conditions: 1 unit human lysozyme or 230 units rLysozyme; 10 μg GST-Tp17 or Tp17-HIS
Experimental: as §2
In that context, we compared the antibacterial activity of human lysozyme (Ventria Bioscience, Sacramento, Calif., USA) and rLysozyme™ using the EnzCheck Lysozyme assay (E-22013; Molecular Probes, Eugene, Oreg.). We first determined that under the manufacturer's prescribed assay conditions, 1 unit of human lysozyme produced the same intensity of fluorescence as 230 units of rLysozyme™. Next, we measured the fluorescence intensity of either 1 unit of human lysozyme or 230 units of rLysozyme™, in the presence or absence of 10 μg of either GST-Tp17 or Tp17-HIS. […]

[11] = 83.5 to 1.3 μg/well test protein

For “GST-Tp17: recombinant fusion protein of GST and Treponema pallidum 17 kDa antigen Tp17 (SEQ ID NO:29)”, the “inhibition of enzymatic antibacterial activity of LISOZIMA CHIESI” value [1] was “strongly inhibited”, the “inhibition of enzymatic antibacterial activity of LIZIPAINA” value [2] was “strongly inhibited” and the “inhibition of acetyl muramidase activity of chicken lysozyme” value (chicken lysozyme [3]; as little as 1.3 μg/well test protein, 10 units lysozyme, 45 min 37° C) was over 85%. For the same molecule, the “inhibition of acetyl muramidase activity of human lysozyme” value (human lysozyme [4]; as little as 1.3 μg/well test protein, 50 units lysozyme, 45 min 37° C) was over 85%, the “binding to chicken lysozyme” value (chicken lysozyme [5]) was “detected binding” and the “binding to human lysozyme” value (human lysozyme [6]) was “detected binding”.

For “natural human breast milk lysozyme: purified natural human breast milk lysozyme (L-6394; Sigma-Aldrich)”, the specific activity [7] is listed as 101,000 units/mg protein.

In the case of “recombinant human lysozyme: purified recombinant human lysozyme from transgenic rice (159-53LZ-90P; Ventria Bioscience)”, the specific activity [7] is listed as 187,000 units/mg protein.

With “sAPPα: longer recombinant fragment of β-APP derived from the APP695 isoform (Sigma S9564)” the “binding of POD-labeled huLYS to immobilized protein” value (human lysozyme [8]) was “binding; also recorded: bound”.

B1: GST-Tp47: control fusion protein of GST and T. pallidum Tp47 antigen (protein)
chain: CGSSHHETHYGYATLSYADYWAGELGQSRDVLLAGNAEADRAGDLDAGMFDAVSRATHGHGAFRQQFQYAVEVLGEKVLSKQETEDSRGRKKWEYETDPSVTKMVRASASFQDLGEDGEIKFEAVEGAVALADRASSFMVDSEEYKITNVKVHGMKFVPVAVPHELKGIAKEKFHFVEDSRVTENTNGLKTMLTEDSFSARKVSSMESPHDLVVDTVGTGYHSRFGSDAEASVMLKRADGSELSHREFIDYVMNFNTVRYDYYGDDASYTNLMASYGTKHSADSWWKTGRVPRISCGINYGFDRFKGSGPGYYRLTLIANGYRDVVADVRFLPKYEGNIDIGLKGKVLTIGGADAETLMDAAVDVFADGQPKLVSDQAVSLGQNVLSADFTPGTEYTVEVRFKEFGSVRAKVVAQ
modifications: left off: a dimerising Fc or GST
notes: control fusion protein of GST and T. pallidum Tp47 antigen
With B1 the “inhibitory effect on chicken lysozyme acetyl muramidase activity” value (chicken lysozyme [3]; [11]) was “did not exert any inhibitory effect”, the “inhibitory effect on human lysozyme acetyl muramidase activity” value (human lysozyme [4]; [11]) was “did not exert any inhibitory effect” and the “binding to chicken lysozyme” value (chicken lysozyme [5]) was “No signal was detected”. For the same molecule, the “binding to human lysozyme” value (human lysozyme [6]) was “No signal was detected”.

B2: E. coli Ivy: Escherichia coli inhibitor of vertebrate lysozyme (P45502) (protein)
chain: QDDLTISSLAKGETTKAAFNQMVQGHKLPAWVMKGGTYTPAQTVTLGDETYQVMSACKPHDCGSQRIAVMWSEKSNQMTGLFSTIDEKTSQEKLTWLNVNDALSIDGKTVLFAALTGSLENHPDGFNFK
In the case of B2, the pI [9] is given as 5.51.

B3: human lysozyme: human lysozyme (NP_000230); breast milk (Sigma) or recombinant (Ventria) depending on the example (protein)
chain: KVFERCELARTLKRLGMDGYRGISLANWMCLAKWESGYNTRATNYNAGDRSTDYGIFQINSRYWCNDGKTPGAVNACHLSCSALLQDNIADAVACAKRVVRDPQGIRAWVAWRNRCQNRDVRQYVQGCGV
In the case of B3, the “susceptibility of antibacterial activity to inhibition by GST-Tp17 or Tp17-HIS” value [10] is reported as “strongly inhibited”.

B4: Tp17-HIS: recombinant mature Tp17 (residues 23 to 156) with histidine tail, expressed in E. coli EcBK633 (protein)
chain: VSCTTVCPHAGKAKAEKVECALKGGIFRGTLPAADCPGIDTTVTFNADGTAQKVELALEKKSAPSPLTYRGTWMVREDGIVELSLVSSEQSKAPHEKELYELIDSNSVRYMGAPGAGKPSKEMAPFYVLKKTKK
modifications: left off: small tags and cut ends
notes: recombinant mature Tp17 (residues 23 to 156) with histidine tail, expressed in E. coli EcBK633
In the case of B4, the “inhibition of enzymatic antibacterial activity of LIZIPAINA” value [2] is reported as “strongly inhibited”.
